Measurements as given in patent publication US20240059766A1 (VOYAGER THERAPEUTICS, published 2024).
Non-standard residues stand in square brackets, D forms with d. No end group written: not given here. pT = C[C@@H](OP(=O)(O)O)[C@H](N)C(=O)O

T1: AT8 peptide (amino acids 195-215 of tau) (human, phospho-peptide; the phosphorylated sites are not stated; immobilized on streptavidin biosensor tips)
T1 peptide: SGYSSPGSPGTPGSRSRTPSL

T2: AT270 peptide (pT181; Tau172-186) (human)
T2 peptide: PAKTPPAPK[pT]PPSSG


Legend:
iPHF = iPHF (UniProt P10636-8 2-441); assay: BLI (Octet), antibody on biosensor tip
iPHF, sequence (P10636 other isoform, or with tags, fused parts or gaps): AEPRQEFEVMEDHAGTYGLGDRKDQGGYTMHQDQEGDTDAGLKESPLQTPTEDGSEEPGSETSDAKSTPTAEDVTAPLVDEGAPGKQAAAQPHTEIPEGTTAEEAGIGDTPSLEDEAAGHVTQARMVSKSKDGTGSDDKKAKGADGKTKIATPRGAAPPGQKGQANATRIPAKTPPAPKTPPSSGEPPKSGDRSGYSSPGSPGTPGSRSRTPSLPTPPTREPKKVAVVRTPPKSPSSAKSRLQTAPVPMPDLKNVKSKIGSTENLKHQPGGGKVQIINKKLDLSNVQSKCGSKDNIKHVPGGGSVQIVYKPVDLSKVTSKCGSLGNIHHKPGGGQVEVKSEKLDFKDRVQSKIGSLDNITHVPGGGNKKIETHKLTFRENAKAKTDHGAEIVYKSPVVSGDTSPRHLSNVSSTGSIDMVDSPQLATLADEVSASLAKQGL
Protocol: Anti-human tau antibodies were assessed for affinity for iPHF by Octet (ForteBio, Menlo Park, CA) analysis. A set of recombinant human IgG1 antibodies were prepared with clone-specific variable domain pairs selected from those presented in Table 1 and human IgG1 constant domains. Candidate antibodies were immobilized on biosensor tips (ForteBio) in kinetic buffer (ForteBio). Biosensor tips were then washed before introduction of a solution of iPHF in kinetic buffer for analysis of association and dissociation with candidate antibodies.

[1] = target: T3, Tau191-214 phospho-peptide (pS199) (human, pS199 (phosphoserine); SCBio-4PEG in the ELISA); assay: BLI
T3 construct: also called pS199 peptide

[2] = target: T1, AT8 peptide (amino acids 195-215 of tau); assay: BLI (Octet), peptide on streptavidin tip
Protocol: Briefly, phospho-peptides were immobilized on streptavidin biosensor tips and the binding ability of each antibody was assessed using an eight-point concentration gradient.

[3] = target: T4, Enriched paired helical filament (ePHF; sarkosyl insoluble tau) (human, UniProt P10636 2-758, pathological (hyperphosphorylated) tau isolated from brain; sites not stated); assay: direct ELISA, coated antigen
T4 construct: aggregate isolated from AD frontal cortical tissue
T4 sequence (P10636 other isoform, or with tags, fused parts or gaps limits assumed): as the sequence (P10636 other isoform, or with tags, fused parts or gaps) above
Protocol: A set of recombinant human IgG1 antibodies were prepared with clone-specific variable domain pairs selected from those presented in Table 1 and human IgG1 constant domains. These candidate antibodies were analyzed for binding to ePHF and specificity for ePHF over wild type tau by direct ELISA.
For direct ePHF and wildtype tau ELISA, plates were first coated with ePHF or wild type tau. Antigen solutions were prepared in PBS and 50 μL were pipetted into each well. Plates were covered and incubated for one hour at 37° C. or overnight at 4° C. Plates were then washed and blocked by addition of 150 μl of blocking buffer to each well and incubated one hour at room temperature. Plates were then washed before addition of serially diluted candidate antibody samples prepared in blocking buffer. Detection of candidate antibody binding was carried out by washing plates and adding a solution of enzyme-labeled secondary antibody in blocking buffer to each well. Secondary antibody binding was detected by addition of substrate and spectrophotometric analysis of resulting reaction product.

[4] = target: Tau191-214 phospho-peptide (pS199/pS202) (human, pS199, pS202; SCBio-4PEG in the ELISA); assay: one point ELISA
Source text: (§1) One-point ELISA was used to determine differential binding based on the individual phosphorylation patterns of each peptide. OD values (450 nm) were collected (as shown in Table 13), where a stronger positive signal is shown as a higher OD value, which is indicative of increased binding.

[5] = target: T5, SCBio-4PEG-Peptide (Tau191-214) pS199-old (human, pS199; SCBio-4PEG at the peptide as in the table head); assay: one point ELISA
T5 construct: the suffix old is not explained
T5 sequence (peptide, as listed by the source): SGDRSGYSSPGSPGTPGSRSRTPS
Source text: as §1

[6] = target: Tau191-214 phospho-peptide (pS199/pT205) (human, pS199, pT205; SCBio-4PEG in the ELISA); assay: one point ELISA
Source text: as §1

[7] = target: Tau191-214 phospho-peptide (pT205) (human, pT205 (phosphothreonine); SCBio-4PEG in the ELISA); assay: one point ELISA
Source text: as §1

[8] = target: Tau191-214 phospho-peptide (pS202) (human, pS202 (phosphoserine); SCBio-4PEG in the ELISA); assay: one point ELISA
Source text: as §1

[9] = target: T3, Tau191-214 phospho-peptide (pS199); assay: one point ELISA
Source text: as §1

[10] = target: T2, AT270 peptide (pT181; Tau172-186); assay: one point ELISA

Binder | Kd (iPHF) [nM] | binding result [1] | Kd [2] [nM] | EC50 [3] [nM] | OD450 [4] [OD450 nm] | OD450 [5] [OD450 nm] | OD450 [6] [OD450 nm] | OD450 [7] [OD450 nm] | OD450 [8] [OD450 nm] | OD450 [9] [OD450 nm] | binding result [10]
VY003 (antibody, V domains shown) VH: EVQMVESGGGLVQPGGSLTLSCAASGFTFSSYRMNWVRQAPGKGLEWVSYISSSRSAIYYADSVKGRFTISRDNAKNSLYLQMNSLRDEDTAVYYCATLGIGYWGQGTLVTVSS VL: DIVMTQTPLSSPVTLGQPASISCRSSQSLVHSDGNTYLSWLQQRPGQPPRLLIYKISNRFSGVPDRFSGSGAGTDFTLKITRVEAEDVGIYYCMQVTQFPRTFGQGTKVEIR | 4.6 | no binding | 0.0124 | 0.06 | 0.082 | 0.062 | 0.119 | 0.06 | 0.065 | 0.065 | –
VY011 (antibody, V domains shown) VH: QVQLQESGPGLVKPSETLSLTCTVSGGSISNYYWTWIRQPAGKGLEWIGRVYTSGSANYNPSLKSRVTMSVDTSKNQFSLTLSSVTAADTAVYYCARDRGLYYWGQGTLVTVSS VL: DIVMTQTPLSSLVTLGQPASISCRSSQSLVHSDGNTYLSWLQQRPGQPPRLLIYKISKRFFGVPDRFSGSGAGTDFTLKINRVEAEDVGIYYCMQATQFPLTFGGGTKVEIK | 2 | – | 0.0089 | 0.03 | – | – | – | 0.06 | 0.06 | – | no binding
